In the assay the target is eGFP-Unr (UniProt O75534). In words: FRET or BRET. A general note: In BRET a luciferase serves as donor, and the signal depends on an acceptor being close.
Chain of UniProt O75534 (O75534 whole entry): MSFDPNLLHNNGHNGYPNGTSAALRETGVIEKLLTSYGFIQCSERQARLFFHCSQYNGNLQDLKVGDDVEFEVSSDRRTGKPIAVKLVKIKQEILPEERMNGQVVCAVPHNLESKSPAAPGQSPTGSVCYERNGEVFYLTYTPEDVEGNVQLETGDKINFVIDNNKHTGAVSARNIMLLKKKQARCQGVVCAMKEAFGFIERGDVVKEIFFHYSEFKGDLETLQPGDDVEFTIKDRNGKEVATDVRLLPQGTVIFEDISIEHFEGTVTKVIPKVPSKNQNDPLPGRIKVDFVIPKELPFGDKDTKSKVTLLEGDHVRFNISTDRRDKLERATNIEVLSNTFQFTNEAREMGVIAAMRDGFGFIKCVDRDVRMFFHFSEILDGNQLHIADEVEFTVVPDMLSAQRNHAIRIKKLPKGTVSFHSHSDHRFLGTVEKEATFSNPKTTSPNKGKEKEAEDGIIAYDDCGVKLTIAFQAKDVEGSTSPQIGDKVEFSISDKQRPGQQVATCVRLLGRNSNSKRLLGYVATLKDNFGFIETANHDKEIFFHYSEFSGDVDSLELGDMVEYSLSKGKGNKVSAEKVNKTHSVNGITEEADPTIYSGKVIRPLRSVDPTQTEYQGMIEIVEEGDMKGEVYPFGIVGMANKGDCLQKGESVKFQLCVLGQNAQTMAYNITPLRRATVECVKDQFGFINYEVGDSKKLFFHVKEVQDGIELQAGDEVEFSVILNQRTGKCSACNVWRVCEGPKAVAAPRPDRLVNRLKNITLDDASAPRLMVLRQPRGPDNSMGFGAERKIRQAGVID

As for GagG2A-mCherry (natural protein), the FRET efficiency (one-population analysis) turned out to be 7.5%, the FRET efficiency of the interacting population (two-population analysis) is 46% and the percent of eGFP-Unr interacting (two-population analysis) was 25%.

For NCp7-mCherry (natural protein), the FRET efficiency of the interacting population (two-population analysis) was > 35%, the average FRET efficiency (one-population analysis) stood at 5.1% and the percent of eGFP-Unr interacting (two-population analysis) worked out at 21%.

Take mCherry-NCp7 (natural protein): the FRET efficiency of the interacting population (two-population analysis) was > 35%, the average FRET efficiency (one-population analysis) stood at 6.8% and the percent of eGFP-Unr interacting (two-population analysis) was determined as 26%.

The values above are taken from paper PMC9413769.
